Measurements as given in CN106699884A (ZONHON BIOPHARMA INST INC; GENSUN INST BIOMEDICINE CO LTD, dated 2017).

Target: T1, 人C-反应蛋白 (human C-reactive protein, extracted from human plasma, HyTest) (human, UniProt P02741 19-224)
T1 construct: mature; Native protein from plasma; In the Western blot it was run on both non-denaturing and SDS gels; also called CRP; 天然CRP
T1 sequence (looked up): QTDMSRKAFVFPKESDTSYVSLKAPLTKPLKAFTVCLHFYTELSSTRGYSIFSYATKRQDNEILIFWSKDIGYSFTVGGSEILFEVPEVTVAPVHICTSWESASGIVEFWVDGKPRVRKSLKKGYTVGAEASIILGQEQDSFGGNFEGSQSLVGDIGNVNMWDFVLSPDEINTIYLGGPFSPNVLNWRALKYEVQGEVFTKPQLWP
Assay: Western blot, HRP-labelled scFv on native CRP from non-denaturing and SDS-PAGE gels

binding result: binds
B1: 单链抗体P20 (anti-human C-reactive protein scFv P20) (scFv)
scFv: EVMLVESGGGLVKPGGSLKLSCAASGFTFSSYAMSWVRQTPERRLEWVATISTSGSDRYYPDSVKWRFTISRDSAKNILYLQMSSLRSEDTAMYYCARRGWDYWGQGTSVTVSAGGGGSGGGGSGGGGSDVVMTQTPLSLPVSLGDQASISCRSSQSLVHSNGNTYLHWYLQKSGQSPKLLLYKVSNRFSGVSDRFSGSGSGTDFTLKISRVEAEDLGVYFCSQNTHVPPTFGGGTKLEIKR
notes: Recombinant scFv made in E. coli BL21(DE3) and purified on HisTrap HP; It was HRP-labelled (P20-HRP) in the Western blot and was the coating antibody on nitrocellulose in the colloidal gold card; also called P20-scFv-(HIS)6; P20-HRP
